Test results as given in PMC10397247.

Key:
Assay in all cases: two-hybrid library CCmax;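 also: natural log of median RNA to DNA barcode read ratio; higher means stronger binding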
4H1070-AA = biological target: T1, 4H1070-AA
T1 chain: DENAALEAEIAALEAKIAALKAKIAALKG

4H1193-AA = biological target: T2, 4H1193-AA; conditions: mean of both orientations
T2 chain: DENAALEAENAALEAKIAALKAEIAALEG

4H134-AA = biological target: T3, 4H134-AA; conditions: mean of both orientations
T3 chain: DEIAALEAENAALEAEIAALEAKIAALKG

4H1350-AA = biological target: T4, 4H1350-AA; conditions: mean of both orientations
T4 chain: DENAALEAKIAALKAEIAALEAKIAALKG

4H1385-AA = biological target: T5, 4H1385-AA; conditions: mean of both orientations
T5 chain: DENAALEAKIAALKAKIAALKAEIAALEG

4H1392-AA = biological target: T6, 4H1392-AA; conditions: mean of both orientations
T6 chain: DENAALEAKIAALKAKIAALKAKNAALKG

4H2622-AA = biological target: T7, 4H2622-AA; conditions: mean of both orientations
T7 chain: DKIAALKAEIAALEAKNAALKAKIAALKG

4H2705-AA = biological target: T8, 4H2705-AA; conditions: mean of both orientations
T8 chain: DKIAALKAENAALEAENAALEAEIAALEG

4H2736-AA = biological target: T9, 4H2736-AA; conditions: mean of both orientations
T9 chain: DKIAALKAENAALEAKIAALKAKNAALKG

4H2888-AA = biological target: T10, 4H2888-AA; conditions: mean of both orientations
T10 chain: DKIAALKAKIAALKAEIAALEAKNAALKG

4H3049-AA = biological target: T11, 4H3049-AA; conditions: mean of both orientations
T11 chain: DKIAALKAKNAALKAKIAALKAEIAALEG

4H337-AA = biological target: T12, 4H337-AA; conditions: mean of both orientations
T12 chain: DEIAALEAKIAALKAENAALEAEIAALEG

4H3587-AA = biological target: T13, 4H3587-AA; conditions: mean of both orientations
T13 chain: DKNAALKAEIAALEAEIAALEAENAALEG

4H3590-AA = biological target: T14, 4H3590-AA; conditions: mean of both orientations
T14 chain: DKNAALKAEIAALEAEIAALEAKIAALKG

4H3625-AA = biological target: T15, 4H3625-AA; conditions: mean of both orientations
T15 chain: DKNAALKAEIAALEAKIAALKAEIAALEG

4H384-AA = biological target: T16, 4H384-AA
T16 chain: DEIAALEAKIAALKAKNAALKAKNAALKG

4H3905-AA = biological target: T17, 4H3905-AA; conditions: mean of both orientations
T17 chain: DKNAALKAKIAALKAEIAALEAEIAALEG

4H4038-AA = biological target: T18, 4H4038-AA; conditions: mean of both orientations
T18 chain: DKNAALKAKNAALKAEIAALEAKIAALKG

4H43-AA = biological target: T19, 4H43-AA; conditions: mean of both orientations
T19 chain: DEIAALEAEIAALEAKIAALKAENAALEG

4H451-AA = biological target: T20, 4H451-AA; conditions: mean of both orientations
T20 chain: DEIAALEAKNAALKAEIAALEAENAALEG

4H510-AA = biological target: T21, 4H510-AA; conditions: mean of both orientations
T21 chain: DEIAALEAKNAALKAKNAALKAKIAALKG

4H_BCR = biological target: T22, 4H_BCR; conditions: mean of both orientations
T22 chain: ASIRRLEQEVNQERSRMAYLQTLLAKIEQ

4H_GCN4 = conditions: mean of both orientations
GCN2_T = biological target: GCN2_T
O11-AA = biological target: T23, O11-AA
T23 chain: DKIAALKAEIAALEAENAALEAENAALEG

O13-AA = biological target: T24, O13-AA; conditions: mean of both orientations
T24 chain: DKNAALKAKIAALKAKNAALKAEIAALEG

O14-AA = biological target: T25, O14-AA; conditions: mean of both orientations
T25 chain: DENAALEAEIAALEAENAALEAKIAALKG

4H_GCN4, sequence (chain, as listed by the source): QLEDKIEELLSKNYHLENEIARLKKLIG

interaction score (4H1070-AA): 2.05
interaction score (4H1193-AA): -0.64
interaction score (4H134-AA): 1.2
interaction score (4H1350-AA): 1.96
interaction score (4H1385-AA): 1.6
interaction score (4H1392-AA): -0.733
interaction score (4H2622-AA): 1.21
interaction score (4H2705-AA): -1.19
interaction score (4H2736-AA): -0.965
interaction score (4H2888-AA): 1.51
interaction score (4H3049-AA): 0.86
interaction score (4H337-AA): 0.472
interaction score (4H3587-AA): 1.56
interaction score (4H3590-AA): 2.25
interaction score (4H3625-AA): 1.73
interaction score (4H384-AA): -0.364
interaction score (4H3905-AA): 2.23
interaction score (4H4038-AA): 1.53
interaction score (4H43-AA): 1.94
interaction score (4H451-AA): -1.11
interaction score (4H510-AA): -1.68
interaction score (4H_BCR): -1.54
interaction score (4H_GCN4): -1.5
interaction score (GCN2_T): -0.746
interaction score (O11-AA): 1.22
interaction score (O13-AA): -0.784
interaction score (O14-AA): 0.236
Binder: DENAALEAEIAALEAKIAALKAKIAALKG [4H1070-AA]
